Article PMC9090332, “Reconstitution of surface lipoprotein translocation through the Slam translocon” (eLife, 2022)

Biological target: T1, E. coli Skp with N-terminal 6xHis tag, purified (E. coli, UniProt P0AEU7 21-161)
T1 sequence (looked up): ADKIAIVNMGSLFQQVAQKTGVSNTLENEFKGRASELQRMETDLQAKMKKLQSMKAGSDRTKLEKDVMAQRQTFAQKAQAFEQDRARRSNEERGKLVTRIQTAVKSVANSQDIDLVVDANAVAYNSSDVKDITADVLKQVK
Assay: cell-based or functional assay

B1: Moraxella catarrhalis transferrin binding protein B, C-terminal flag-tag (natural protein)
chain: CGGSGGSNPPAPTPIPNASGSGNTGNTGNAGGTDNTANAGNTGGASSGTGSANTPEPKYQDVPTDKNEKEQVSPIQEPAMGYGMALSKINLHNRQDTPLDEKNIITLDGKKQVAEGKKSPLPFSLDVENKLLDGYIAKMDKADKNAIRRRIESENKAKPLSEAELAEKIKEAVRKSYEFQQVMTSLENKIFHSNDGTTKATTRDLQYVDYGYYLANDANYLTVKTDKPKLWNSGPVGGVFYNGSTTAKELPTQDAVKYKGHWDFMTDVANKGNRFSEVKGTRQAGWWYGASSKDEYNRLLTDEKNKPDGYNGEYGHSSEFTVNFKEKKLTGGLFSNLQDSHKQKVTKTKRYDIDANIHGNRFRGSAIASDKEKDSETKHPFTSDAKDRLEGGFYGPKGEELAGKFLTDDNKLFGVFGAKQESKADKTEAILDAYALGAFNKNDANTFTPFTKKQLDNFGNAKKLVLGSTVINLVSTDATKNEFTEDKPKSATNKAGETLMVNDKVSVKTYGYGRNFEYLKFGELSVGGSHSVFLQGERTATTGDKAVPTEGKAKYLGNWVGYITGTGTGKSFNEAQDIADFDIDFKNKTVNGKLTTKGRTDPVFNITGEISGNGWTGKASTAKADAGGYNIDSNGTNKSIVIRDADVTGGFYGPNATEMGGSFTHNTNDSKASVVFGTKRQEEVKP
modifications: lipidated (processed by Lgt, Lsp, and Lnt)
protection of urea-unfolded purified TbpB from proteinase K with Skp (and LolA) added to empty liposomes, against SurA + Slam1 proteoliposomes (3.5% protection): ≤ 10%
